Reference: US20170320960A1

B1: SC57.5 (antibody, V domains shown)
VH: EVQLQQSGPELVKPGASVKISCKASGYSFTDYYLHWVKQSHVKSLEWIGRINPYNGATSYNQIFKDKASLTVDKSSSTAYMDLHSLTSEDSAVYYCARGGDYDFPWYWGQGTTLTVSP
VL: DIVMTQSHKFMSTSVGDRVSITCKASQDVYAAVAWYHQKPGQSPKLLIYWASTRHAGVPDRFTGSGSGTDYTLTISSVQAEDLALYYCQQHYRTPWTFGGGTKLEIK
B2: SC57.11 (antibody, V domains shown)
VH: QVQLQQSGAELMKPGASVKISCKATGYTFSNYRIEWMKQRPGHGLEWIGEILPRTGNTNYNENFKGKATFTADTSSNTAYIQLSSLTSEDSAVYYCARDDGYYGRFAYWGQGTLVTVSA
VL: DIQMTQTTSSLSASLGDRVTISCRASQDISSYLNWYQQKPDGTVKLLIYYTSRLHSGVPSRFSGSGSGTDYSLTINNLEQEDIATYFCQQGNTLPPTFGGGTKLEIK
B3: SC57.46 (antibody, V domains shown)
VH: QVQLKESGPGLVAPSQSLSITCTVSGFSLTSYGVHWVRQPPGKGLEWLGIIWAGGTTNYNSALMSRLSIRKDNSKSQVFLKMNSLQTDDTAMYYCARDRGYDGYFDYAVDYWGQGTSVTVSS
VL: DIQMTQSPPSLSASVGETVTITCRTSENIYSYLTWYQQKQGKSPQLLVYNAKTLAEGVPSRFSGSGSGTQFSLKINSLQPEDFGSYYCQHHYGTPLTFGAGTKLELK
B4: hSC57.5 (antibody, human IgG1, kappa, V domains shown)
VH: EVQLVQSGAEVKKPGESLKISCKGSGYSFTDYYLHWVRQMPGKGLEWMGRINPYNGATSYNQIFKDQVTISADKSISTAYLQWSSLKASDTAMYYCARGGDYDFPWYWGQGTTVTVSS
VL: DIQMTQSPSSLSASVGDRVTITCKASQDVYAAVAWYQQKPGKAPKLLIYWASTRHAGVPSRFSGSGSGTDFTLTISSLQPEDFATYYCQQHYRTPWTFGQGTKVEIKR

Target: hMFI2-ECD-His (extracellular domain of human MFI2, residues G20-C709, with Histidine tag) (human) (UniProt P08582)
Sequence (P08582 20-709 limits assumed, form in doubt): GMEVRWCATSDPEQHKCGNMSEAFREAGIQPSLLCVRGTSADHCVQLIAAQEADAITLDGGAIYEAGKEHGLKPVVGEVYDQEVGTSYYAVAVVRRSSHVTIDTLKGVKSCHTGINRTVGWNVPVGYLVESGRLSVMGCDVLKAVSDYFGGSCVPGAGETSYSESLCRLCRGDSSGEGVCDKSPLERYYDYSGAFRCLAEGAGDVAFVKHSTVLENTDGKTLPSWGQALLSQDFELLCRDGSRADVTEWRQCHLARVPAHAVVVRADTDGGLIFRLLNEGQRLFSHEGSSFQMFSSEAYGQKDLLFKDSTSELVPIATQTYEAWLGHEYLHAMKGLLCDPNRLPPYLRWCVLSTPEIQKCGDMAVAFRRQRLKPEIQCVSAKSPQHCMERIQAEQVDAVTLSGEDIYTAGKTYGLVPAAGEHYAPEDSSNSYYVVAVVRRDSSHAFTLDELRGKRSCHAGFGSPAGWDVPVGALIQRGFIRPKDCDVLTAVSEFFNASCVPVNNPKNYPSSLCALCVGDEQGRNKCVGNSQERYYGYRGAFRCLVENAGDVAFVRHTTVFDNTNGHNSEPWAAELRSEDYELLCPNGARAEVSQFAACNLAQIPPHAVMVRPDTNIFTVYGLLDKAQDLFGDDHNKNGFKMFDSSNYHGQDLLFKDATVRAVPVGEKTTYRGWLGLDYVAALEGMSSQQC
Assay: SPR (BIAcore 2000): antibody captured, monomeric MFI2-His flowed, 1:1 Langmuir fit; species not given, taken as hMFI2-His

Compared with B1, B2 is 2.9-fold higher in Kd: 1.1 nM for the first, 3.2 nM for the second.

B3 and B4 are within 1.5-fold of each other in Kd: 4.5 nM for the first, 4.4 nM for the second.
